The labels stand for the following.
B1: HDV Ribozyme (parent)
chain: GGCCGGCAUGGUCCCAGCCUCCUCGCUGGCGCCGGCUGGGCAACAUUCCGAGGGGACCGUCCCCUCGGUAAUGGCGAAUGGGACCCA

Variants of B1 are the subject of the data set. Nature of the data set: self-cleavage, relative activity (ratio to wild type); higher = more cleavage; co-transcriptional.
For C3A C86A, the self-cleavage worked out at 0.535.

Consider G1A U46G, for which the self-cleavage came to 0.138.

Consider G10U C61A, for which the self-cleavage worked out at 0.665.

In the case of U9C U69A, the self-cleavage was found to be 1.02.

Regarding G34U C86G, the self-cleavage was determined as 0.205.

For G6U C15U, the self-cleavage turned out to be 0.646.

As for C15G G34A, the self-cleavage was determined as 0.237.

As for C18U C33U, the self-cleavage stood at 0.463.

On to U37C G50U, for which the self-cleavage is 0.923.

Regarding A45U G50C, the self-cleavage was determined as 0.767.

On to G5A C58A, for which the self-cleavage is 0.253.

As to G28C G68U, the self-cleavage was determined as 0.0426.

Turning to G80U A83U, the self-cleavage came to 0.181.

For the variant C15U C26G, the self-cleavage was 0.867.

U23C C41A: the self-cleavage was 0.789.

As to G1A A78U, the self-cleavage stood at 0.0449.

For C26A C84G, the self-cleavage worked out at 0.95.

Turning to C26A U79C, the self-cleavage is 0.469.

C33A C36G: the self-cleavage stood at 0.208.

In the case of G2C G38C, the self-cleavage was found to be 0.0475.

Consider G11U U69A, for which the self-cleavage worked out at 0.317.

As for C19U G52C, the self-cleavage stood at 0.326.

For the variant U9A U27G, the self-cleavage turned out to be 1.13.

Consider G5C C64U, for which the self-cleavage is 0.332.

On to C14A A42C, for which the self-cleavage stood at 0.0369.

Consider C36G A56C, for which the self-cleavage was determined as 0.158.

For G67U A71G, the self-cleavage was determined as 1.12.

On to A45C G53U, for which the self-cleavage turned out to be 0.712.

Take G31U G35U: the self-cleavage worked out at 0.0443.

Turning to C32U A78C, the self-cleavage was found to be 0.177.

With C64U G81C, the self-cleavage stood at 0.315.

For U9A C85U, the self-cleavage was 0.906.

For the variant G28A G40A, the self-cleavage came out at 0.0615.

As to G55U C66A, the self-cleavage came out at 0.986.

On to C24A C30U, for which the self-cleavage stood at 0.0723.

Consider C21G A51G, for which the self-cleavage was 0.131.

With C26G U27A, the self-cleavage turned out to be 0.516.

G59U C64G: the self-cleavage amounted to 1.13.

Regarding G28A C86A, the self-cleavage is 0.0256.

Consider G29C G82C, for which the self-cleavage turned out to be 0.0739.

Turning to G81C C86A, the self-cleavage came to 0.554.

Take G10A C86A: the self-cleavage amounted to 0.82.

Regarding A71U C84G, the self-cleavage turned out to be 0.481.

Regarding U69C G74U, the self-cleavage was 0.575.

On to U37A G67U, for which the self-cleavage was found to be 0.272.

As to C7G C49A, the self-cleavage came out at 0.145.

Take A16U C33A: the self-cleavage was found to be 0.0639.

As for C30A C49G, the self-cleavage amounted to 0.232.

For C49G C64G, the self-cleavage is 0.308.

Turning to G76U C85U, the self-cleavage is 1.24.

As for C18U G52U, the self-cleavage was 0.594.

Regarding U12C G81U, the self-cleavage was 0.

G1A C61G: the self-cleavage came out at 0.0831.

On to G5C G25C, for which the self-cleavage stood at 0.

As to G31A G76U, the self-cleavage was determined as 0.749.

In the case of C15G C26G, the self-cleavage turned out to be 0.431.

Turning to C24A A43U, the self-cleavage was 0.258.

For the variant C4U C21U, the self-cleavage was found to be 0.0678.

On to C15U A45U, for which the self-cleavage is 0.831.

As for C48A G50U, the self-cleavage came out at 1.17.

C14G G29A: the self-cleavage came to 0.107.

Consider G5U A87U, for which the self-cleavage came to 0.293.

As to U47A A87U, the self-cleavage worked out at 1.03.

For U47A A87C, the self-cleavage amounted to 0.95.

As for C33U U37G, the self-cleavage stood at 0.0462.

Regarding C49G U79G, the self-cleavage was 0.762.

Consider G2C A56U, for which the self-cleavage stood at 0.0482.

Take G40C C62A: the self-cleavage is 0.237.

As for C30A G53C, the self-cleavage was determined as 0.47.

As to G59A C63A, the self-cleavage worked out at 1.07.

Regarding C4G A83G, the self-cleavage was 0.192.

For the variant A78G G82U, the self-cleavage was 0.295.

Take C18A C62G: the self-cleavage was 0.135.

Take A43G C44A: the self-cleavage stood at 0.684.

G11U C22U: the self-cleavage stood at 0.103.

In the case of G54U G55C, the self-cleavage was found to be 0.953.

For G11A G29A, the self-cleavage stood at 0.0633.

In the case of G2U G54A, the self-cleavage came out at 0.0279.

Regarding A8U G68U, the self-cleavage amounted to 0.858.

For U9C G11C, the self-cleavage is 0.266.

In the case of A16G C36U, the self-cleavage came out at 0.655.

For the variant U20C C21U, the self-cleavage came to 0.0339.

Consider C4A C58U, for which the self-cleavage is 0.424.

Turning to C41U C48A, the self-cleavage was 1.07.

Take C30A G76A: the self-cleavage worked out at 0.585.

For A42C A43U, the self-cleavage stood at 0.122.

Turning to G5A C41G, the self-cleavage was 0.

In the case of A45C G50U, the self-cleavage was 0.494.

Turning to U12C C18U, the self-cleavage stood at 0.111.

Consider G50U C61G, for which the self-cleavage turned out to be 0.67.

Regarding G67U C75G, the self-cleavage is 0.185.

Take G55C A70C: the self-cleavage turned out to be 0.932.

As for U12A C19G, the self-cleavage stood at 0.

Turning to G34A C48U, the self-cleavage was determined as 0.132.

For C26A G81U, the self-cleavage was determined as 0.519.

In the case of C19U G80C, the self-cleavage was found to be 0.112.

Consider G6A G74C, for which the self-cleavage is 0.155.

For G67U G68C, the self-cleavage amounted to 0.962.

As to C57A A70G, the self-cleavage came to 0.852.

Turning to U27G C49G, the self-cleavage turned out to be 0.665.

C13U G81U: the self-cleavage was 0.163.

As for U37G G68C, the self-cleavage stood at 0.246.

In the case of C19A U72C, the self-cleavage stood at 0.0978.

Consider G25A A45G, for which the self-cleavage worked out at 0.332.

As for A43U C44G, the self-cleavage turned out to be 0.739.

Consider G2A C62A, for which the self-cleavage came out at 0.137.

Turning to A45G A77C, the self-cleavage was 0.18.

For C26U A78U, the self-cleavage came out at 0.743.

As to G11A A42U, the self-cleavage turned out to be 0.158.

As for A77G G81A, the self-cleavage came out at 0.287.

In the case of U9C C21A, the self-cleavage came to 0.0639.

For C57A C84U, the self-cleavage came to 0.935.

Take U47C G67C: the self-cleavage was 0.59.

For the variant A8C C64G, the self-cleavage came out at 0.415.

For the variant C13A C75G, the self-cleavage is 0.145.

As to A43C G74C, the self-cleavage was determined as 0.0811.

As for C33A G53A, the self-cleavage is 0.264.

As for C19A A51C, the self-cleavage stood at 0.0733.

For C18G G28A, the self-cleavage stood at 0.0346.

For the variant C63A G67A, the self-cleavage is 0.35.

Take U72A G81A: the self-cleavage came to 0.113.

With G2U U20G, the self-cleavage was determined as 0.0256.

Consider G11A C41A, for which the self-cleavage came out at 0.381.

Turning to G29A A83G, the self-cleavage is 0.0611.

With G10C G35A, the self-cleavage is 0.525.

A8C A77G: the self-cleavage came out at 0.798.

Turning to U20A U23G, the self-cleavage worked out at 0.

C30G C64U: the self-cleavage turned out to be 0.126.

Consider U69G G81U, for which the self-cleavage turned out to be 0.374.

With C21U U27C, the self-cleavage was 0.0536.

As to A8C U60A, the self-cleavage was 0.831.

For C41U G50U, the self-cleavage is 0.933.

As for C58U G68C, the self-cleavage came to 0.95.

On to G10U U79C, for which the self-cleavage was determined as 0.0615.

For U46G A77U, the self-cleavage was 0.0831.

With C62U A71C, the self-cleavage turned out to be 0.812.

Take C41A G53A: the self-cleavage was 0.967.

In the case of C4G G73U, the self-cleavage stood at 0.086.

In the case of C32U G53U, the self-cleavage worked out at 0.811.

On to C24G U46C, for which the self-cleavage stood at 0.106.

Regarding G50U A87G, the self-cleavage stood at 0.927.

In the case of G11C G25C, the self-cleavage came out at 0.0475.

Regarding G52C G82C, the self-cleavage was 0.141.

Regarding C4A G5A, the self-cleavage is 0.13.

Turning to C15U A70C, the self-cleavage amounted to 0.776.

As for C7A U72C, the self-cleavage is 0.196.

Regarding U9A C48U, the self-cleavage came to 0.914.

For the variant C44G U72A, the self-cleavage came out at 0.229.

Take G17U A42U: the self-cleavage was found to be 0.089.

G17U A42G: the self-cleavage amounted to 0.0489.

On to U23A G82A, for which the self-cleavage amounted to 0.266.

Take A56C C64A: the self-cleavage is 0.911.

For the variant G5C G55U, the self-cleavage was 0.17.

On to G5C G55A, for which the self-cleavage was determined as 0.175.

On to C62G G68C, for which the self-cleavage stood at 0.196.

As to C3U G10C, the self-cleavage worked out at 0.762.

Turning to C75G A78G, the self-cleavage worked out at 0.222.

Regarding A45U C63A, the self-cleavage came out at 0.784.

Consider C63G C75G, for which the self-cleavage turned out to be 0.0489.

As for C21U G73C, the self-cleavage was 0.119.

On to C13G U79G, for which the self-cleavage was found to be 0.0755.

As to U20G U27A, the self-cleavage came out at 0.266.

For the variant U27C U37A, the self-cleavage worked out at 0.0519.

For U9G C64G, the self-cleavage came to 0.831.

Take G2U G80C: the self-cleavage was determined as 0.0455.

With A51C C63U, the self-cleavage came out at 1.05.

Turning to G28U G53C, the self-cleavage came out at 0.0692.
